Data from patent publication US9063157B2, “Method for evaluating skin condition using squamous cell carcinoma antigen as marker” (Shiseido Company, Ltd., priority 2005, dated 2015).
Entries after “also recorded” stand apart in the source; their conditions may differ. Like-named read-outs stand apart in the source and are kept apart here. * marks the point of attachment. Cbz = O=C(OCc1ccccc1)*; CH2F = FC*

T1: purified caspase-14 (Homo sapiens, UniProt P31944)
T1 construct: human caspase-14 was purified as a heterodimer comprising a large subunit (17 KDa) and a small subunit (11 KDa); from tissue; host or cells: human heel stratum corneum (cornified cells)
T1 sequence (P31944 6-146 limits assumed): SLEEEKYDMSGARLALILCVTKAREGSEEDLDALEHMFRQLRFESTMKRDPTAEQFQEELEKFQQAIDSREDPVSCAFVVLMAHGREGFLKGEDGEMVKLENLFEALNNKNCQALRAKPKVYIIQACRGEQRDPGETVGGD
T1 sequence (P31944 153-242 limits assumed): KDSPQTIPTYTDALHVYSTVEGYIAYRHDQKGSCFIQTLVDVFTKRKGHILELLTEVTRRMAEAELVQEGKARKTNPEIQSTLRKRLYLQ

T2: caspase-14 (Homo sapiens, UniProt P31944)
T2 construct: human caspase-14 was purified as a heterodimer comprising a large subunit (17 KDa) and a small subunit (11 KDa); from tissue; host or cells: human heel stratum corneum (cornified cells)
T2 sequence (P31944 6-146 limits assumed): T1 sequence (P31944 6-146 limits assumed)
T2 sequence (P31944 153-242 limits assumed): T1 sequence (P31944 153-242 limits assumed)

T3: caspase-3 (Homo sapiens, UniProt P42574)
T3 construct: When recombinant active caspases were incubated together with SCCA-1; purchased BIOMOL Research Labs, Inc. (Plymouth Meeting, PA)
T3 sequence (P42574 29-175 limits assumed): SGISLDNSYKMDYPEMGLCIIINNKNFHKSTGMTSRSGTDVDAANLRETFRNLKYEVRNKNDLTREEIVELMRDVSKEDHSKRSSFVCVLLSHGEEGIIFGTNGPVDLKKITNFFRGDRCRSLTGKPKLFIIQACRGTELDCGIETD
T3 sequence (P42574 176-277 limits assumed): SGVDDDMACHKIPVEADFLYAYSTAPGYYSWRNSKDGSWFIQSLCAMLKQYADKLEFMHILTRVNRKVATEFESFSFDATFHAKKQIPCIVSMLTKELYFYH

B1: SCCA-1: recombinant squamous cell carcinoma antigen 1, an ov-serpin family papain-like cysteine protease inhibitor (protein)
chain: MNSLSEANTKFMFDLFQQFRKSKENNIFYSPISITSALGMVLLGAKDNTAQQIKKVLHFDQVTENTTGKAATYHVDRSGNVHHQFQKLLTEFNKSTDAYELKIANKLFGEKTYLFLQEYLDAIKKFYQTSVESVDFANAPEESRKKINSWVESQTNEKIKNLIPEGNIGSNTTLVLVNAIYFKGQWEKKFNKEDTKEEKFWPNKNTYKSIQMMRQYTSFHFASLEDVQAKVLEIPYKGKDLSMIVLLPNEIDGLQKLEEKLTAEKLMEWTSLQNMRETRVDLHLPRFKVEESYDLKDTLRTMGMVDIFNGDADLSGMTGSRGLVLSGVLHKAFVEVTEEGAEAAAATAVVGFGSSPTSTNEEFHCNHPFLFFIRQNKTNSILFYGRFSSP

What was measured:
purified caspase-14 = target: T1, purified caspase-14; assay: Caspase-14 activity inhibitor assay with WEHD-MCA substrate; format: biochemical
Procedure: Currently, 15 types of human caspases are known, but caspase-14 was incubated together with various peptide inhibitors for caspases (YVAD (SEQ ID NO:3), VDVAD (SEQ ID NO:4), DEVD (SEQ ID NO:5), VEID (SEQ ID NO:6), IETD (SEQ ID NO:7), LEHD (SEQ ID NO:8), DNLD (SEQ ID NO:9)), class-specific inhibitors for cysteine proteinases (IAA) or serine proteinases (AEBSF). WEHD-MCA (SEQ ID NO:10) was used as substrate in the presence of 1.3 M sodium citrate and 5 mM DTT, and the residual enzyme activity was measured. The tested enzyme concentrations were 5, 2.5 and 1.25 μM. The values were represented as mean values for multiple assays.
Caspase-14 activity was assayed by the method described in Mikolajczyk J. et al., Biochemistry 43, 10560-9 (2004), with some modifications, using Ac-WEHD-MCA as substrate. Briefly, an assay mixture was prepared from 45 μL of 0.1 M HEPES buffering solution (pH 7.5), 0.06 M NaCl, 0.01% CHAPS, 5 mM DTT, 1.3 M sodium citrate and 10 μM WEHD-MCA (all final concentrations). After adding enzyme sample (5 μl) to the mixture, it was incubated for 10-30 minutes. The reaction was suspended by addition of 150 μl of 0.1 M monochloroacetic acid, and Fluoroskan Ascent FL (Thermo Electron Co., Wolsam, Mass.) was used for measurement with a 355 nm excitation wavelength and a 460 nm luminous wavelength. For the inhibitor assay, caspase-14 and peptide inhibitor were incubated at room temperature for 15 minutes in assay buffer, and 5 μl of 100 μM WEHD-MCA was added to start the assay.
Human cornified cells (about 14 g) scraped from healthy human heel were extracted with 0.1 M Tris-HC1 (pH 8.0) containing 0.14 M NaCI, using a glass homogenizer. After centrifuging at 15,000g for 60 minutes, the supernatant was collected. It was concentrated with Amicon Ultra (Millipore, MA) and desalted with a Fast Desalting Column HR10/10 (Amersham Biosciences), and then the crude product was coated onto a HiPrep 16/10 Q XL column. The column was cleaned with 20 mM Tris-HCI (pH 8.0) and eluted with a 0-1 M linear NaCl gradient. The fraction was tracked by Western blotting using caspase-14antibody (H-99) (Santa Cruz Biotechnology, CA) and h14D^146 antibody. Each fraction was subjected to assay of hydrolytic activity on Ac Trp-Glu-His-Asp-methyl-coumarinamide (WEND-MCA) (Peptide Institute, Inc., Osaka, Japan). The positive fraction was applied to a Mono Q column equilibrated with the same buffering solution, and eluted with a NaCl gradient of up to 1M. The caspase-14 fraction was further separated by Mono S positive cation exchange chromatography. The column was equilibrated with 20mM acetic acid buffer (pH 4.5) and eluted with a 0-1 M NaCl gradient. The positive fraction was concentrated and applied to a chromatofocusing Mono P column equilibrated with 25 mM ethanolamine (pH 8.3). Next, elution was performed while forming a pH gradient from pH 8 to 5 using 46ml of Polybuffer (pH 5.0). Caspase-14 was subjected to final purification using Superdex 75 gel chromatography. The protein concentration was determined using a BioRad Protein Assay Kit (BioRad Lab, Hercules, CA).

skin equivalent models = skin equivalent models (Weil et al., 1999); cited from earlier work
caspase-14 = target: T2, caspase-14; assay: ICAD cleavage by purified caspase-14, Western blotting; format: biochemical; conditions: for inhibition of ICAD decomposition by caspase-14: prolonged incubation (up to 16 hours), kosmotropic salt
Text: Identified were 33 KDa and 27 KDa cleavage products. […] ICAD decomposition was observed only in the presence of a kosmotropic salt.
For Western blotting and immunohistochemical analysis of ICAD, anti-ICAD IgG (FL331, Santa Cruz Biotechnology) and DFF45/ICAD Ab-2 (NeoMarkers, Fremont, Calif.) were used.
The protein was separated by SDS-polyacrylamide gel electrophoresis with a 5-20% gradient gel. After electrophoresis, the protein was transferred onto a polyvinylidene difluoride membrane (Immobilon-P, Millipore, Bedford, Mass.) and incubated together with anti-caspase-14 antibody including H-99, h14D^146 or C20. Peroxidase-labeled anti-rabbit IgG (Sigma) or anti-goat IgG was used as secondary antibody and ECL-Plus (Amersham) was used as immunoreactive protein for visualization by chemiluminescence.
The present inventors tested the effect of caspase-14 on ICAD, in the course of searching for natural substrates of caspase-14, because disappearance of nuclei is a very important event for final differentiation.

caspases 1-10 = assay: Recombinant active caspases incubated with SCCA-1; format: biochemical
Text: Benzyloxycarbonyl (Z)-YVAD-FMK, Z-YVAD-FMK, Z VDVAD-FMK, Z-DEVD-FMK, Z-VEID-FMK, Z-IETD-FMK, Z-LEHD-FMK, and Z-VAD-FMK were purchased from BioVision (Mountain View, CA). Recombinant caspases 1-10 were obtained from BIOMOL Research Labs, Inc. (Plymouth Meeting, PA).
Although SCCA-1 belongs to the serpin superfamily, it inhibits cysteine proteinases such as papain and cathepsin L (Takeda A. et al., Biol. Chem. 383, 1231-6 (2002)). […] Kosmotropic conditions were used for caspase-14. […] The enzyme activity was not recovered even with extended incubation.

caspase-3 = target: T3, caspase-3; assay: Caspase-3 activity with synthetic substrate DEVD-MCA or natural substrate ICAD; format: biochemical
Text: The enzymatic properties of purified caspase-14 were highly unique. Purified caspase-14exhibited relatively wide inhibitor sensitivity with respect to known caspase inhibitors. […] It was shown, for the first time, that SCCA-1 is an endogenous inhibitor of caspase-14. The property most specific to SCCA-1 is its high specificity for caspase-14. The other members, caspases 1-10, had never been reported as being affected by SCCA-1. […] This behavior is in contrast to Crm A. […] is also known to suppress several caspases including caspase-1 and caspase-8 (Gagliardini V. et al., Science 263: 826-8 (1994)). XIAP is known to inhibit caspase-3, -7, and -9 (Srinivasula S.M. et al., Nature 410: 112-6 (2001)). Since the anti-apoptotic protein p35 inhibits caspase-1, -3, -6, -7, -8, and -10, it is believed to have a wider spectrum.

[1] = WEHD-MCA substrate, 1.3 M sodium citrate, 5 mM DTT, tested concentrations 5, 2.5 and 1.25 μM

Row | Molecule | inhibiting effect against caspase-14 activity (residual enzyme activity) (purified caspase-14; [1]) | also measured
1 | LEHD-FMK: caspase-9 inhibitor (Cbz-LEHD-CH2F; SMILES CC(C)C[C@H](NC(=O)OCc1ccccc1)C(=O)N[C@@H](CCC(=O)O)C(=O)N[C@@H](Cc1c[nH]cn1)C(=O)N[C@@H](CC(=O)O)C(=O)CF) | exhibited sensitivity | 
2 | O=C(O)CI [IAA, iodoacetic acid] |  | inhibiting effect against caspase-14 activity (residual enzyme activity) (purified caspase-14): no significant inhibiting effect
3 | IETD-FMK: caspase-8 inhibitor (Cbz-IETD-CH2F; SMILES CC[C@H](C)[C@H](NC(=O)OCc1ccccc1)C(=O)N[C@@H](CCC(=O)O)C(=O)N[C@H](C(=O)N[C@@H](CC(=O)O)C(=O)CF)[C@@H](C)O) | exhibited sensitivity | 
4 | NCCc1ccc(S(=O)(=O)F)cc1 [AEBSF, 4-(2-aminoethyl)benzenesulfonyl fluoride] | no significant inhibiting effect | 
5 | VEID-FMK: peptide inhibitor for caspases (Cbz-VEID-CH2F; SMILES CC[C@H](C)[C@H](NC(=O)[C@H](CCC(=O)O)NC(=O)[C@@H](NC(=O)OCc1ccccc1)C(C)C)C(=O)N[C@@H](CC(=O)O)C(=O)CF) | virtually no effect | 
6 | VDVAD-FMK: caspase-2 inhibitor (Cbz-VDVAD-CH2F; SMILES CC(C)[C@H](NC(=O)OCc1ccccc1)C(=O)N[C@@H](CC(=O)O)C(=O)N[C@H](C(=O)N[C@@H](C)C(=O)N[C@@H](CC(=O)O)C(=O)CF)C(C)C) | exhibited sensitivity | 
7 | VAD-FMK: pan-caspase inhibitor (Cbz-Val-Ala-Asp-CH2F) | inhibited caspase-14 activity at about the same level as VAD-FMK; also recorded: one of the most powerful caspase-14 inhibitors | inhibition of disappearance of nuclei (skin equivalent models): inhibited disappearance of nuclei
8 | DEVD-FMK: caspase-3 inhibitor | exhibited sensitivity | 
9 | Benzyloxycarbonyl (Z)-YVAD-FMK | most powerful inhibiting effect; also recorded: strongest inhibition | 
10 | B1 | inhibited caspase-14 activity against WEHD-MCA in a dose-dependent manner | inhibition of ICAD cleavage by caspase-14 (caspase-14; 10 μM SCCA-1, in presence of kosmotropic salt): completely inhibited; inhibition of ICAD decomposition by caspase-14 (caspase-14): inhibition of ICAD decomposition; inhibition of ICAD decomposition by caspase-14 (caspase-14; listed as SCCA 1): inhibited ICAD decomposition by caspase-14; effect on enzyme activity of caspases 1-10 (caspases 1-10): none of the caspase members (1-10) were affected in their enzyme activity; inhibition of caspase-3 activity (caspase-3; natural substrate ICAD): did not inhibit; inhibition of caspase-3 activity (caspase-3; synthetic substrate DEVD-MCA): did not inhibit
